In US20210238276A1 (INTEGRAL MOLECULAR, published 2021):

Tests used:
[1] = target: T1, hsGLUT4 Y309I (human, UniProt P14672 1-509); assay: flow cytometry, mutant in HEK-293T
T1 construct: The running text prints 'Y3091'; also called Y3091 (as printed in the running text); outward-open lock mutant
T1 sequence: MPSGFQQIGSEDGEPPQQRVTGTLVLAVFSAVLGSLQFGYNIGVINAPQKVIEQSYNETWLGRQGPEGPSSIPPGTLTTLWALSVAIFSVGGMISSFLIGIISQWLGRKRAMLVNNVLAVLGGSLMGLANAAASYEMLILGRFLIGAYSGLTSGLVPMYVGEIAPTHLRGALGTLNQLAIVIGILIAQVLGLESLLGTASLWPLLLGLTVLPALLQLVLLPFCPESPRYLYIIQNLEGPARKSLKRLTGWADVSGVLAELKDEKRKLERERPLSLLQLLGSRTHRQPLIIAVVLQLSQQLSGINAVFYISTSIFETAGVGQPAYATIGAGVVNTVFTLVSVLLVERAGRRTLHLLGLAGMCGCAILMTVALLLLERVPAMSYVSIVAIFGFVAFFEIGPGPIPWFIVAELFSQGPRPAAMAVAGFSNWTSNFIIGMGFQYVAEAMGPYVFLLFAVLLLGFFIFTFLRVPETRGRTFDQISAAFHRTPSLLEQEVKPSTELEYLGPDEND

[2] = target: T2, hsGLUT4 E345Q (human, UniProt P14672 1-509); assay: flow cytometry, mutant in HEK-293T
T2 construct: also called inward-open lock mutant
T2 sequence: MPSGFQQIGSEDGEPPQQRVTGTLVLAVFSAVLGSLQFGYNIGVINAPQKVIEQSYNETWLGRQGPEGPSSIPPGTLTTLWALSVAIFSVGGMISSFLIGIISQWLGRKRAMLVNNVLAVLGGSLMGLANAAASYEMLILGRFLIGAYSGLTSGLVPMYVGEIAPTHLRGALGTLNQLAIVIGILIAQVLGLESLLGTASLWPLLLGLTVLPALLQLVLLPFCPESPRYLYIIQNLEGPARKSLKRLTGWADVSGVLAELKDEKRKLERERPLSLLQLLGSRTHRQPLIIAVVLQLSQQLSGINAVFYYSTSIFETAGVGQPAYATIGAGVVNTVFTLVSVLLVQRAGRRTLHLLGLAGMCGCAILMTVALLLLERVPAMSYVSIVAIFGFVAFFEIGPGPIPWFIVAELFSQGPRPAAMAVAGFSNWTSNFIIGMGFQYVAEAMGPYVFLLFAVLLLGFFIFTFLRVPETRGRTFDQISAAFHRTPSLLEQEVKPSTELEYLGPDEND

[3] = target: T3, hsGLUT4 G348A (human, UniProt P14672 1-509); assay: flow cytometry, alanine-scan library in HEK-293T
T3 sequence: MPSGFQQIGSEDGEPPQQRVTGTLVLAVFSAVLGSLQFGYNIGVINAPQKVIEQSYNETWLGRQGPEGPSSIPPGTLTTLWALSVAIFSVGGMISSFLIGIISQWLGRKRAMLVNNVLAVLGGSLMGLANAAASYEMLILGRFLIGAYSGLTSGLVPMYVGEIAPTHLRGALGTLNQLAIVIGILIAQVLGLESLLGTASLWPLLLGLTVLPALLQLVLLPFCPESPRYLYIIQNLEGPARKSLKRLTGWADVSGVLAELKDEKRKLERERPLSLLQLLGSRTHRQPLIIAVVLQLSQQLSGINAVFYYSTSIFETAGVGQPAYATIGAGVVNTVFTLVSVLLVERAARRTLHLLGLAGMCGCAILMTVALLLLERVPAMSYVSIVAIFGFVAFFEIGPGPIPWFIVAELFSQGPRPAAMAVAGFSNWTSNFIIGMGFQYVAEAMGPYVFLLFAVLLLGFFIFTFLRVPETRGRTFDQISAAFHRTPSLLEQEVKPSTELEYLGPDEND
How it was run: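 HEK-293T cells expressing individual GLUT4 alanine mutants were stained 48 h post-transfection with anti-GLUT4 scFv MAbs (2 μg/ml), then biotinylated secondary and streptavidin-PerCP, and read by high-throughput flow cytometry. Where used, cytochalasin B (10 uM final) was given for 30 min before and during primary antibody staining.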

[4] = target: T4, human GLUT4 (hsGLUT4), wild type (UniProt P14672 1-509); assay: BLI; avid
T4 chain: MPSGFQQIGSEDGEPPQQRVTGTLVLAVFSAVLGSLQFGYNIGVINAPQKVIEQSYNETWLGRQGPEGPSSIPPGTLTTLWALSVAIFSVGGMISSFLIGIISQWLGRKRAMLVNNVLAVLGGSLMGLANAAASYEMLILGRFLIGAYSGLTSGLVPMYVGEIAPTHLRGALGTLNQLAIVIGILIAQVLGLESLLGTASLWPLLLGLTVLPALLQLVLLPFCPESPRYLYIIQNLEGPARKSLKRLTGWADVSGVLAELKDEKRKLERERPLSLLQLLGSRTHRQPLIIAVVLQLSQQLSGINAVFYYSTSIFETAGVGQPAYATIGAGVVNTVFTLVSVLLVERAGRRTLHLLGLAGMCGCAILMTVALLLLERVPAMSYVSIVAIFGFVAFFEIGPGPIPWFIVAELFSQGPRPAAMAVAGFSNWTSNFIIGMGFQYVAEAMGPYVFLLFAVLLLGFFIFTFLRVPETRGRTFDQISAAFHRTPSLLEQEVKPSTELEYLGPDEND

Molecule	% of binding to wild type GLUT4 [1] [%]	% of binding to wild type GLUT4 [2] [%]	% of binding to wild type GLUT4 [3] [%]	Kd [4] [nM]
1F8 (antibody)	101	91	109	
AB101 (scFv, Chicken-derived clone used as a control; the four lead clones were tested as scFv-human IgG1 Fc; also called MAb AB101) scFv: ALTQPSSVSANPGETVKITCSGSSNSYGWYQQKSPGSAPVTVIYYNDKRPSDIPSRFSGSKSDSTHTLTITGVRAEDEAVYFCGSYDSTYVGIFGAGTTLTVLGQSSRSSGGGGSSGGGGSAVTLDESGGGLQTPGGTLSLVCKASGFTFSSNAMGWVRQAPGKGLEWVAGISSDGRYTKYGSAVKGRATISRDNGQSTVRLQLNNLRAEDTGTYFCAKAFGNNYRRIYAGQIDAWGHGTEVIVSS	110	96	101	
AB111 (Fc fusion, Bivalent scFv-Fc; also called MAb AB111; not shown: Fc fragment of human IgG1, cloned in frame with the scFv) scFv: ALTQPSSVSANPGETVKITCSGSGSWYGWFQQKSPGSAPVTVIYSNDKRPSDIPSRFSGSKSGSTSTLTITGVQVEDEAVYYCGNWDIFGAGTTLTVLGQSSRSSGGGGSSGGGGSAVTLDESGGGLQTPGGALSLVCKASGFTFSSHGMGWVRQAPGKGLEWVASISTGRYTFYAPAVKGRATISRDNGQSTVRLQLNNLRAEDTATYYCTKCAGLNGCGGGEIDAWGHGTEVIVSS	154	125	161	0.56
AB105 (Fc fusion, Bivalent scFv-Fc; also called MAb AB105; not shown: Fc fragment of human IgG1, cloned in frame with the scFv) scFv: ALTQPSSVSANPGETVEITCSGDSSYYGWYQQKSPGSAPVTVIYANTNRPSDIPSRFSGSASGSTATLTITGVQAEDEAVYYCGSADSTYAGIFGAGTTLTVLGQSSRSSGGGGSSGGGGSAVTLDESGGGLQTPGGALSLICKASGFTFSSYTMNWVRQAPGKGLEWVGVISNSGRTTNYGAAVQGRATISRDNGQSTVRLQLNNLRAEDTGTYYCAKSSASASCAWWAGRSYPCSANRIDAWGHGTEVIVSS		16		
AB108 (Fc fusion, Bivalent scFv-Fc; also called MAb AB108; not shown: Fc fragment of human IgG1, cloned in frame with the scFv) scFv: ALTQPSSVSANLGGTVKITCSGSSGSYGWYQQKAPGSAPVTLIYRNDKRPSDIPSRFSGSESGSTGTLTITGVQAEDEAVYFCGGYDSSAGYAAFGAGTTLTVLGQSSRSSGGGGSSGGGGSAVTLDESGGGLQTPGGALSLVCKASGFTFSSHGMGWVRQAPGKGLEWVGSISTGRYTFYAPAVKGRATISRDNGQSTLRLQLNNLRAEDTGTYYCTKCAGLNGCGGGEIDAWGHGTEVIVSS	67	78	94	1.8
